The record followed here is patent US20180251562A1 (XOMA US, published 2018).

The labels stand for the following.
B1: XPA.15.247 Fab (Fab, V domains shown)
VH: EVQLVETGGGVVQPGRSLRLSCAASGFTFSSYAMHWVRQAPGKGLEWVAVISYDGSNKYYADSVKGRFTISRDNSKNTLYLQMNSLRAEDTAVYYCARHEWGFGMDVWGQGTTVTVSS
VL: DVVMTQSPLSLSVTLGQPASISCRSSLSLVYGDENTYLNWFQQRPGQSPRRLLYKVSDRDSGVPDRFSGSGSGTDFTLKISRVEADDVGVYYCMQGTHWPYTFGQGTKLEIKR
notes: Monomeric Fab; also called Fab247; XPA.15.247 parent Fab
B2: XPA.15.247.2.011 Fab (Fab, V domains shown)
VH: B1 VH with D54S, M105F, V107Y
VL: B1 VL with S12P, L27H, E34G, Q42H, L53I, D58N, S68A, V88F, Y91F
notes: Fab; also called XPA.15.247.011
B3: XPA.15.247.2.014 Fab (Fab, V domains shown)
VH: B1 VH with D54S, M105F, V107Y
VL: B1 VL with S12P, L27Q, E34G, L53I, D58K, D86E, H98Y, Y101M, Q105G
notes: Fab; also called XPA.15.247.014
B4: RHF.15.05896.044 (Fab, V domains shown)
VH: B1 VH with T28K, Y53N, D54S, M105F, V107K
VL: DVVMTQSPLSLPVTLGQPASISCRSSQSLVYGDGNTYLNWFQQRPGQSPRRLIYKVSNRDSGVPDRFSGSGSGTEFTLKISRVEAEDVGVYFCMQGTYWPGTFGGGTKLEIKR
notes: Untagged Fab
B5: RHF.15.05896.068 (Fab, V domains shown)
VH: B1 VH with T28K, D54S, S56G, M105Y, V107Y
VL: B4 VL
notes: Untagged Fab
B6: RHF.15.05896.056 (Fab, V domains shown)
VH: B1 VH with T28K, D54G, M105F, V107E
VL: B4 VL
notes: Untagged Fab
B7: RHF.15.05896.006 (Fab, V domains shown)
VH: B1 VH with T28K, D54S, S56D, M105F, V107R
VL: B4 VL
notes: Untagged Fab
B8: RHF.15.05896.020 (Fab, V domains shown)
VH: B1 VH with T28K, Y53W, D54S, M105F, V107E
VL: B4 VL
notes: Untagged Fab
B9: RHF.15.05896.032 (Fab, V domains shown)
VH: B1 VH with T28K, D54S, S56E, M105F, V107E
VL: B4 VL
notes: Untagged Fab
B10: RHF.15.05896.015 (Fab, V domains shown)
VH: B1 VH with T28K, D54S, S56R, M105Q, V107Y
VL: B4 VL
notes: Untagged Fab
B11: RHF.15.05896.036 (Fab, V domains shown)
VH: B1 VH with T28K, D54S, S56G, M105F, V107L
VL: B4 VL
notes: Untagged Fab

Where a chain is given by its changes, count along the chain named.

For one assay, the target named is T1, rat insulin receptor (INSR) on CHOK1 cells (rat, UniProt P15127 27-1383). Briefly: cell-based or functional assay.
Regarding B1, the “EC50 (nM), pAKT signaling assay” value was 46.6 nM.

Consider B2, for which the “EC50 (nM), pAKT signaling assay” value amounted to 7.8 nM.

As for B3, the “EC50 (nM), pAKT signaling assay” value was around 15.6 nM.

In another assay the target is T2, cynomolgus insulin receptor (INSR) on CHOK1 cells (cyno, UniProt A0A7N9D6H3 48-1390). The assay can be described thus: cell-based or functional assay.
With B1, the “EC50 (nM), pAKT signaling assay” value turned out to be 82.4 nM.

Consider B2, for which the “EC50 (nM), pAKT signaling assay” value was 6.2 nM.

For the molecule B3, the “EC50 (nM), pAKT signaling assay” value was around 15.1 nM.

The target of a further assay is T3, minipig insulin receptor (INSR) on CHOK1 cells (minipig, UniProt F1SCL0 28-758; F1SCL0 763-1382). The assay can be described thus: cell-based or functional assay.
As for B1, the “EC50 (nM), pAKT signaling assay” value stood at 20.7 nM.

With B2, the “EC50 (nM), pAKT signaling assay” value was found to be 4.4 nM.

As to B3, the “EC50 (nM), pAKT signaling assay” value stood at 8.4 nM.

The next assay addresses T4, human insulin receptor (INSR) on CHOK1 cells (human, UniProt P06213 28-1382). Briefly: cell-based or functional assay.
Regarding B1, the “EC50 (nM), pAKT signaling assay” value worked out at 44 nM.

Regarding B2, the “EC50 (nM), pAKT signaling assay” value was 5 nM.

B3: the “EC50 (nM), pAKT signaling assay” value was found to be 9.6 nM.

The next assay concerns the target T5, Recombinant human insulin receptor (B form) ECD (R&D Systems) (human, UniProt P06213 28-956, limits assumed).
T5 construct: extracellular domain; also called INSR-ECD; h-INSR
The assay can be described thus: SPR (Biacore 2000), INSR-ECD immobilised; relative to 247.2.018 Fab. (In general: Surface plasmon resonance follows binding to a sensor surface in real time, without labels.)
As to B4, the “Fold KD Improvement” value was 7.4 fold.

Consider B5, for which the “Fold KD Improvement” value is 8.3 fold.

Take B6: the “Fold KD Improvement” value was 6.9 fold.

As for B7, the “Fold KD Improvement” value worked out at 5.2 fold.

In the case of B8, the “Fold KD Improvement” value worked out at 6.4 fold.

B9: the “Fold KD Improvement” value was 8.6 fold.

For the molecule B10, the “Fold KD Improvement” value was determined as 3.3 fold.

Turning to B11, the “Fold KD Improvement” value amounted to 5.4 fold.

A further assay addresses T5, Recombinant human insulin receptor (B …). Briefly: SPR (Biacore 2000), INSR-ECD immobilised, purified Fab injected, 1:1 fit.
As a reminder, the Kd is the concentration at which binding is half-saturated. B4: the Kd is 1.3 nM.

Consider B5, for which the Kd came out at 1.2 nM.

For the molecule B6, the Kd amounted to 1.4 nM.

For the molecule B7, the Kd stood at 1.9 nM.

Consider B8, for which the equilibrium dissociation constant (Kd) was 1.5 nM.

Regarding B9, the equilibrium dissociation constant (Kd) amounted to 1.1 nM.

In the case of B10, the Kd is 3 nM.

For the molecule B11, the Kd is 1.8 nM.

A further assay deals with T6, solubilized human INSR (B isoform) from CHO-hINSR-B cells, without insulin (human, UniProt P06213 28-1382).
T6 construct: mature; Detergent-solubilized full-length receptor in cell lysate, captured on the SPR chip by its carboxy-terminal part; also called solubilized INSR
Briefly: SPR (ProteOn XPR36), solubilized INSR-B captured by CT-3 mAb, Fab injected, -insulin.
The koff is the rate constant with which the complex falls apart. A word on the kon: it is a measure of how fast the partners come together. Take B1: binding was characterised by a dissociation constant (Kd) of 56 nM, the dissociation rate constant (koff) was 0.00211 s⁻¹ and the kon is 37400 M⁻¹ s⁻¹.

Molecule B2 came in with a Kd of 10 nM, a koff of 0.000705 s⁻¹ and an on-rate (kon) of 70400 M⁻¹ s⁻¹.

B3 had a Kd of 3.7 nM, a koff of 0.000705 s⁻¹ and a kon of 137000 M⁻¹ s⁻¹.

In a further assay the target is T5, Recombinant human insulin receptor (B …). Briefly: SPR (Biacore 2000), INSR-ECD immobilised, purified Fab injected, 1:1 fit [cont'd].
B4: the dissociation rate constant (koff) came to 0.00017 s⁻¹ and the kon was 130000 M⁻¹ s⁻¹.

Turning to B5, the koff came to 0.00038 s⁻¹ and the kon is 320000 M⁻¹ s⁻¹.

On to B6, for which the koff turned out to be 0.00017 s⁻¹ and the kon amounted to 120000 M⁻¹ s⁻¹.

For B7, the off-rate (koff) was determined as 0.00024 s⁻¹ and the association rate constant (kon) was determined as 130000 M⁻¹ s⁻¹.

Consider B8, for which the koff was found to be 0.00017 s⁻¹ and the kon was determined as 110000 M⁻¹ s⁻¹.

With B9, the koff worked out at 0.0001 s⁻¹ and the kon was determined as 91000 M⁻¹ s⁻¹.

Consider B10, for which the koff was 0.00025 s⁻¹ and the on-rate (kon) amounted to 84000 M⁻¹ s⁻¹.

Regarding B11, the koff was 0.00022 s⁻¹ and the kon amounted to 120000 M⁻¹ s⁻¹.

In the next assay the target is T1, rat insulin receptor (INSR) on CHOK1 …. Briefly: flow cytometry on CHOK1 cells expressing the INSR ortholog; Fab, anti-human kappa FITC detection. For orientation: In flow cytometry, cells or beads pass a laser one at a time.
In general, EC50 refers to the midpoint of the concentration-response curve. A higher EC50 goes with lower potency in that assay. Molecule B1 displayed an EC50 of 11.8 nM.

Turning to B2, the EC50 was determined as 1.9 nM.

B3 returned an EC50 of 1.7 nM.

A further assay addresses T2, cynomolgus insulin receptor (INSR) on …. Described as above.
In turn, B1 gave an EC50 of 93 nM.

In turn, B2 registered an EC50 of 17.2 nM.

As to B3, a half-maximal response (EC50) required 10.2 nM.

Another assay has as its target T3, minipig insulin receptor (INSR) on …. Described as above.
Turning to B1, the EC50 amounted to 39.8 nM.

B2 gave an EC50 of 5.8 nM.

Consider B3, for which the EC50 worked out at 2.9 nM.

Another assay concerns the target T4, human insulin receptor (INSR) on CHOK1 …. The description is as above.
The molecule B1 gave an EC50 of 34.8 nM.

For the molecule B2, a half-maximal response (EC50) required 2.7 nM.

The molecule B3 gave an EC50 of 1.8 nM.

Another assay addresses T1, rat insulin receptor (INSR) on CHOK1 …. The assay can be described thus: binding to CHO cells expressing rat INSR; 1st column headed CHO Rat INSR; quantity and unit not printed [cont'd].
In the case of B5, the “CHO Rat INSR” value is 0.533.

B8: the “CHO Rat INSR” value is 0.661.

The next assay addresses T2, cynomolgus insulin receptor (INSR) on …. The assay can be described thus: binding to CHO cells expressing cyno INSR; 1st column headed CHO Cyno INSR; quantity and unit not printed [cont'd].
In the case of B5, the “CHO Cyno INSR” value came to 0.854.

Take B8: the “CHO Cyno INSR” value was 0.911.

For another assay, the target named is T4, human insulin receptor (INSR) on CHOK1 …. Briefly: binding to CHO cells expressing human INSR; 1st column headed CHO Human INSR; quantity and unit not printed [cont'd].
As to B4, the “CHO Human INSR” value was determined as 2.52.

For the molecule B5, the “CHO Human INSR” value is 1.25.

Turning to B6, the “CHO Human INSR” value turned out to be 2.26.

As for B7, the “CHO Human INSR” value came out at 2.95.

Consider B8, for which the “CHO Human INSR” value came out at 1.96.

Consider B9, for which the “CHO Human INSR” value came to 3.1.

With B10, the “CHO Human INSR” value was 4.35.

Consider B11, for which the “CHO Human INSR” value was found to be 3.04.

The target is the same in another assay. The assay can be described thus: binding to CHO cells expressing human INSR; 2nd column headed CHO Human INSR; quantity and unit not printed [cont'd].
As to B5, the “CHO Human INSR” value was 0.762.

Take B8: the “CHO Human INSR” value amounted to 0.838.

A further assay addresses T2, cynomolgus insulin receptor (INSR) on …. The assay can be described thus: binding to CHO cells expressing cyno INSR; 2nd column headed CHO Cyno INSR (same numbers as the 1st); quantity and unit not printed [cont'd].
Regarding B5, the “CHO Cyno INSR” value amounted to 0.854.

Take B8: the “CHO Cyno INSR” value came to 0.911.

For the next assay, the target named is T1, rat insulin receptor (INSR) on CHOK1 …. The assay can be described thus: binding to CHO cells expressing rat INSR; 2nd column headed CHO Rat INSR (the 1st column's numbers with more digits); quantity and unit not printed [cont'd].
In the case of B5, the “CHO Rat INSR” value is 0.533.

As for B8, the “CHO Rat INSR” value is 0.66.
